Values of other authors in article PMC10866841.
Where two headings read alike, the source gives them in different places.

What was measured:
C4d C4d (Homo sapiens) [1] = target: C4d C4d (Homo sapiens) (UniProt P0C0L4)
[2] = target: oligomeric amyloid-β (Homo sapiens) (UniProt P05067)
[3] = target: oligomeric amyloid-β (Homo sapiens) (UniProt P05067); remark: listed apart in the source
C4d C4d (Homo sapiens) [4] = target: C4d C4d (Homo sapiens) (UniProt P0C0L4); remark: listed apart in the source

C4d C4d (Homo sapiens), sequence (P0C0L4 957-1336): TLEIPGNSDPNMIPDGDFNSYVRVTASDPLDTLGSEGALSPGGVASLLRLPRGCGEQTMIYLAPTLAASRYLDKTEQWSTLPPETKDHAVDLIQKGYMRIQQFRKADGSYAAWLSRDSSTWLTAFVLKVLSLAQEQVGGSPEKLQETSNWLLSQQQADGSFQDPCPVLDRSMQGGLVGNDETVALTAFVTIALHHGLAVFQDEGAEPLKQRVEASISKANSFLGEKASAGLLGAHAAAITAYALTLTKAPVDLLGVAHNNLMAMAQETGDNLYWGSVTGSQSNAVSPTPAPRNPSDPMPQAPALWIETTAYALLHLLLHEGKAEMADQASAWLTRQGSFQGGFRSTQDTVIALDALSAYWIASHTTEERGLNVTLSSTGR
LILRB2, sequence (Q8N423 22-460): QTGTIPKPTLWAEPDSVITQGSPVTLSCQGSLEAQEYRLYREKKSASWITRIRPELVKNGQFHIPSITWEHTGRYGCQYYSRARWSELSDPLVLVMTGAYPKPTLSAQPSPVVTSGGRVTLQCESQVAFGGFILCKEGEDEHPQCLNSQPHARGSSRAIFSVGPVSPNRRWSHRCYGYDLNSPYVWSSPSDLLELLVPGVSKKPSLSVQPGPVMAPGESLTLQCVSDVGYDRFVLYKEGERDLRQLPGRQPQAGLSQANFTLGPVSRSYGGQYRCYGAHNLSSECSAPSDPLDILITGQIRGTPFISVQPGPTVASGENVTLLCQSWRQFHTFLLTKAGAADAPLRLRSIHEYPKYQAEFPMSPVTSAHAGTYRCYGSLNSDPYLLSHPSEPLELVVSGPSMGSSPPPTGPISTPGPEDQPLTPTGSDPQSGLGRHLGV
PIRB, sequence (P97484 25-642): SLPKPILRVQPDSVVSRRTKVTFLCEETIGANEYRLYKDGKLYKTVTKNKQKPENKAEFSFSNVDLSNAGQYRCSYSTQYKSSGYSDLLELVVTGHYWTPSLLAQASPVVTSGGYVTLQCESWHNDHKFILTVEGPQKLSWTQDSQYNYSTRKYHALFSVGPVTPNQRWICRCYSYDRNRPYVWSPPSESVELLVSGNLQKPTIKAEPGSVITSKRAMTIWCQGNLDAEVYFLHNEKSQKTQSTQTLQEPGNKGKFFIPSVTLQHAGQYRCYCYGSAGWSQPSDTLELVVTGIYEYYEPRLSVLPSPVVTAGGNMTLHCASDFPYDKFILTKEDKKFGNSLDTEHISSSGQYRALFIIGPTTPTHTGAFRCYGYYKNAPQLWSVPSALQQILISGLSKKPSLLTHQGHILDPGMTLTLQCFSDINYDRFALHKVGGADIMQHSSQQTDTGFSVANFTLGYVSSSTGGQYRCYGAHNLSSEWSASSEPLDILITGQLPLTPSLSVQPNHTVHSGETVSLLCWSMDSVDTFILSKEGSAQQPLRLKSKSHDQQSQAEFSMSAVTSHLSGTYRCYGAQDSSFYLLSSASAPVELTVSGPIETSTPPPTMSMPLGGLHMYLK
oligomeric amyloid-β (Homo sapiens), sequence (P05067 672-713): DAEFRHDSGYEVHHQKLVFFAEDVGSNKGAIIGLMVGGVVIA

| Kd (C4d C4d (Homo sapiens) [1]) | Kd [2] | Kd [3] | Kd (C4d C4d (Homo sapiens) [4]) | Substance |
| --- | --- | --- | --- | --- |
| 630 nM | 180 nM | – | – | LILRB2 (from UniProt Q8N423) |
| – | – | 180 nM | 630 nM | PIRB (from UniProt P97484) |
